Reference: publication PMC9371898

How the values were obtained:
Assay in all cases: SEC
[1] = molecular target: PriRep5-ΔCTD (residues 676-790 removed) (Staphylococcus aureus (SaPI5, strain USA300))
[2] = molecular target: PriRep5 K591A (Staphylococcus aureus (SaPI5, strain USA300))
[3] = molecular target: Rep1 Triple Mutant (R248A-Y251A-K253A) (Staphylococcus aureus (SaPI1)) (UniProt Q8GNZ1)

Substance: PriRep5-ΔCTD (residues 676-790 removed) (domain or fragment)
- stoichiometry N [1]: 6

Substance: PriRep5 K591A (natural protein)
- stoichiometry N [2]: 6

Substance: Rep1 Triple Mutant (R248A-Y251A-K253A) (from UniProt Q8GNZ1 1-66) (natural protein)
- stoichiometry N [3]: 6
